One may read the Kd as the free concentration of one partner at which half of the binding sites on the other are occupied at equilibrium, for simple one-to-one binding. A lower Kd goes with a tighter complex.

The text below walks through data of paper PMC11334799.

Assay [1] concerns the target human C3b (human) (UniProt P01024).
Assay [2] shares this target. Kind of assay: BLI. On the technique in general: In BLI a coated tip is dipped into the sample, and binding shifts an interference pattern.

Sequence of human C3b (human) (P01024 23-667, chain 1 of 2): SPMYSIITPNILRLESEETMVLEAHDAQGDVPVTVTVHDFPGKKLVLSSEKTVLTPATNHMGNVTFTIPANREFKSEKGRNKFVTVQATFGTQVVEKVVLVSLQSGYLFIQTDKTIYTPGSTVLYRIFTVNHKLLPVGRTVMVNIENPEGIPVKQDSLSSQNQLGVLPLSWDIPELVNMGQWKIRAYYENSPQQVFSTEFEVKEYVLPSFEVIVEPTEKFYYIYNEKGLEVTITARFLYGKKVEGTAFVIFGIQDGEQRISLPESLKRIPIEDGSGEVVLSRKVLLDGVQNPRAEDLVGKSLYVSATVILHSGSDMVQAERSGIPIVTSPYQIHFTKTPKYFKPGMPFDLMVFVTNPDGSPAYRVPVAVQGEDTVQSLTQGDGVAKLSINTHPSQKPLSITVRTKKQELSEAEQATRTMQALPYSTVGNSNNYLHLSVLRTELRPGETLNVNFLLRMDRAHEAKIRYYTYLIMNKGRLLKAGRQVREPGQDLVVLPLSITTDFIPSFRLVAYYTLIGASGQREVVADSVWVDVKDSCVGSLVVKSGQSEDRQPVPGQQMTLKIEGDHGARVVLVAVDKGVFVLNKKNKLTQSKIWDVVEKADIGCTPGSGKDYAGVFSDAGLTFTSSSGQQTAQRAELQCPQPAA
Sequence of human C3b (human) (P01024 749-1663, chain 2 of 2): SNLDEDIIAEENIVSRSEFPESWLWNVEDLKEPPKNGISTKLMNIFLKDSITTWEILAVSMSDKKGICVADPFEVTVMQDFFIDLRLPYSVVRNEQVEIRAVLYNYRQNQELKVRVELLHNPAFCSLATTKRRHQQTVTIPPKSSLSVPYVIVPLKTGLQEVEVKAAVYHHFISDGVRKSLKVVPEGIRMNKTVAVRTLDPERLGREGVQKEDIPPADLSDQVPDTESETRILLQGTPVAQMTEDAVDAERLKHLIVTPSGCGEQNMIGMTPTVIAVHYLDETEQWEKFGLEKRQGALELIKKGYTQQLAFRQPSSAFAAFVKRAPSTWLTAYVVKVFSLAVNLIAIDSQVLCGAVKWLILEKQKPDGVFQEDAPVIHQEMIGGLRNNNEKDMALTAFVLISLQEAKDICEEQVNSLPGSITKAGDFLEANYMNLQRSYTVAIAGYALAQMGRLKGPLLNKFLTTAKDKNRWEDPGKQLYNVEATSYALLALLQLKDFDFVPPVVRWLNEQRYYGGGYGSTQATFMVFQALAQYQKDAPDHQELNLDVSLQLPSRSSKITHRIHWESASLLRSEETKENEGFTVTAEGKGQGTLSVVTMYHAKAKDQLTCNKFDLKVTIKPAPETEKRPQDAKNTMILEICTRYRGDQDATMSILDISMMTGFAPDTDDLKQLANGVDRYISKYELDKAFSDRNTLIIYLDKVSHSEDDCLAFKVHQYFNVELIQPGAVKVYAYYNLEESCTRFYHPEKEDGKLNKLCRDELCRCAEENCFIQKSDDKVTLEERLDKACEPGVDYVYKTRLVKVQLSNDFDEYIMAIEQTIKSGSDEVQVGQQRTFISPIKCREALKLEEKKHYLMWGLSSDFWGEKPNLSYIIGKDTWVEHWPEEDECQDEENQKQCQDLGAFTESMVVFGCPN

As for “CG001, (CRIg-FH-IgG4 Fc) x2 (from UniProt Q9Y279 20-283; P08603 18-264) (Fc fusion)”, in assay [1], the AP-mediated hemolysis of rabbit erythrocytes (12% NHS), IC50 came to 88.9 nM; the AP-mediated hemolysis of rabbit erythrocytes (12% NHS), IC95 was 207 nM; the CP-mediated hemolysis of sheep erythrocytes (0.2% hemolysin, 1% NHS), IC50 worked out at 446 nM; the CP-mediated hemolysis of sheep erythrocytes (0.2% hemolysin, 1% NHS), IC95 came out at 34200 nM. For the same substance, the Kd in assay [2] was determined as 4.24 nM.
